Reference: patent publication US20100092409A1 (DANISCO US, published 2010)

How the values were obtained:
[1] = biological target: T1, vascular endothelial growth factor (VEGF) (UniProt P15692-4 27-191, limits assumed, labeled with biotin for the BioVeris assay (sites not given)); assay: BioVeris ECL competition with a labeled competitor; grade +++ = apparent IC50 about 2-10 µM
Procedure: (§1) The resulting vectors were used to transform B. subtilis BG6006 host cells. Cultures were grown in 500 ml of MBD medium and the BBI species were purified essentially as described above and by Vogtentanz et al., 2007 (Protein Expr Purif 55:40-52 [2007]). BioVeris binding assays were performed essentially as outlined in Example 5 and by the manufacturer. Binding of the modified variant BBIs to their respective target proteins was measured using a BioVeris® binding assay, which is a competition assay that determines the binding of the modified variant BBIs to its target protein (e.g. VEGF, FGF5, TGFβ and TNFα) in the presence or absence of a labeled competitor. The competitor can be a labeled monoclonal antibody raised against the target protein or a labeled native receptor of the target protein. The electrochemiluminescent binding assays were performed essentially as described in Example 5. The apparent IC50s were determined from binding data by determining the concentration of the BBI species needed to reduce the BioVeris signal by one half. BBI scaffolds without the target binding peptide in the chymotrypsin inhibitory loop were used as negative controls.

[2] = biological target: T1, vascular endothelial growth factor …; assay: BioVeris ECL competition with a labeled competitor; grade ++ = apparent IC50 about 10-50 µM
Procedure: as §1

[3] = biological target: T2, tumor necrosis factor α (TNFα) (UniProt P01375 77-233); assay: BioVeris ECL competition with a labeled competitor; negative control for TNFα binding
T2 sequence (P01375 77-233 limits assumed): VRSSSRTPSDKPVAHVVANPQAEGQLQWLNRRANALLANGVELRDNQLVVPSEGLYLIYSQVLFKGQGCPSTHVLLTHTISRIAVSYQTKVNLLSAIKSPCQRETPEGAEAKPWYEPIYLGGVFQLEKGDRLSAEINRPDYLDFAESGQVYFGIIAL
Procedure: as §1

[4] = biological target: T3, fibroblast growth factor 5 (FGF-5) (UniProt P12034 21-268, limits assumed); assay: BioVeris ECL competition with a labeled competitor; grade ++ = apparent IC50 about 10-50 µM
T3 sequence (looked up): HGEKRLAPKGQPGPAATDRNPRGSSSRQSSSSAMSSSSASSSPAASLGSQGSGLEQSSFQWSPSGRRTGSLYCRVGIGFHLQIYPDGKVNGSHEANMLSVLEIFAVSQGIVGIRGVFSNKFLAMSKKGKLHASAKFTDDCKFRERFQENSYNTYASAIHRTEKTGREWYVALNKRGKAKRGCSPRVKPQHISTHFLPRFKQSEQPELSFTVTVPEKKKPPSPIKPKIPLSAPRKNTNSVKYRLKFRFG
Procedure: as §1

[5] = biological target: T4, transforming growth factor β1 (TGFβ1) (UniProt P01137 279-390); assay: BioVeris ECL competition with a labeled competitor; negative control for TGFβ binding
T4 sequence (P01137 279-390 limits assumed): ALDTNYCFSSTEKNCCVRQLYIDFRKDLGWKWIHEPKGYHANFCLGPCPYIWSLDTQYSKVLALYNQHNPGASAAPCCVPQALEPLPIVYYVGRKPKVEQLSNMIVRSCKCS
Procedure: as §1

[6] = biological target: T4, transforming growth factor β1 (TGFβ1); assay: BioVeris ECL competition with a labeled competitor; grade ++ = apparent IC50 about 10-50 µM
Procedure: as §1

[7] = biological target: T2, tumor necrosis factor α (TNFα); assay: as above
Procedure: as §1

[8] = biological target: T2, tumor necrosis factor α (TNFα); assay: BioVeris ECL competition with a labeled competitor; grade + = apparent IC50 about 50-250 µM
Procedure: as §1

[9] = biological target: T1, vascular endothelial growth factor …; assay: BioVeris ECL competition with a labeled competitor; negative control for VEGF binding
Procedure: as §1

[10] = biological target: T3, fibroblast growth factor 5 (FGF-5); assay: BioVeris ECL competition with a labeled competitor; negative control for FGF-5 binding
Procedure: as §1

T1 sequence (P15692 other isoform, or with tags, fused parts or gaps limits assumed): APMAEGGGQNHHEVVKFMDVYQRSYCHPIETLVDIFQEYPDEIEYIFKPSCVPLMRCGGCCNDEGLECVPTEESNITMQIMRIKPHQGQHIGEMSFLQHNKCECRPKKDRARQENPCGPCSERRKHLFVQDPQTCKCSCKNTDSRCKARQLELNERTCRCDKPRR

B1: BBIt-AV (truncated BBI-AV, unmodified variant) (designed binder)
chain: DDESSKPCCDQCACTKSNPPQCRCSDMRLNSCHSACKSCACYNLYGWTCFCVDITDFCYEPCKPSE
notes: also called CT
[1]
  IC50: 2 to 10 µM

B2: BBIt-AV-A13I-L29P-A40K-F50T-V52A (designed binder)
chain: DPDDESSKPCCDQCICTKSNPPQCRCSDMRPNSCHSACKSCKCYNLYGWTCTCADITDFCYEPCKPSE
notes: also called TA5; quintuple variant
[1]
  IC50: 2 to 10 µM

B3: BBIt-AV-A13I-A40K-F50T-V52A (designed binder)
chain: DPDDESSKPCCDQCICTKSNPPQCRCSDMRLNSCHSACKSCKCYNLYGWTCTCADITDFCYEPCKPSE
[1]
  IC50: 2 to 10 µM

B4: BBIt-AV-A13I-S25K-M27A-L29R-S31A-A40H-F50R-V52L (designed binder)
chain: DPDDESSKPCCDQCICTKSNPPQCRCKDARRNACHSACKSCHCYNLYGWTCRCLDITDFCYEPCKPSE
notes: also called RL8
[1]
  IC50: 2 to 10 µM

B5: BBIt-AV-A13I-S25K-M27A-L29R-S31E-A40K-F50Q-V52Q (designed binder)
chain: DPDDESSKPCCDQCICTKSNPPQCRCKDARRNECHSACKSCKCYNLYGWTCQCQDITDFCYEPCKPSE
notes: also called QQ8
[1]
  IC50: 2 to 10 µM

B6: BBIt-AV-A13I-S25R-M27A-L29P-S31A-A40H-F50K-V52T (designed binder)
chain: DPDDESSKPCCDQCICTKSNPPQCRCRDARPNACHSACKSCHCYNLYGWTCKCTDITDFCYEPCKPSE
notes: also called KT8
[1]
  IC50: 2 to 10 µM

B7: BBdb-AV (Dolichos biflorus Bowman Birk Inhibitor with CK37281 in the second protease inhibitory loop) (designed binder)
chain: DPSESSKPCCDQCACTKSIPPQCRCTDVRLNSCHSACSSCACYNLYGWTCVCVDMKDFCYEPCK
notes: also called BBIdb-AV
[1]
  IC50: 2 to 10 µM

B8: BBtc-AV (Torresea cearensis Bowman Birk Inhibitor with CK37281 in the second protease inhibitory loop) (designed binder)
chain: DPSSKWEACCDRCACTKSIPPQCHCADIRLNSCHSACESCACYNLYGWTCRCFDITDFCYKPCSG
notes: also called BBItc-AV
[1]
  IC50: 2 to 10 µM

B9: BBIt-VEGKD-A13I-S25K-L29P-V52K (designed binder)
chain: DPDDESSKPCCDQCICTKSNPPQCRCKDMRPNSCHSACKSCICKYDLYWWCFCKDITDFCYEPCKPSE
notes: also called VegKD-Q
[1]
  IC50: 2 to 10 µM

B10: BBIt-VEGF-V5-A13I-S25R-M27A-L29P-S31A-F50K-V52T (designed binder)
chain: DPDDESSKPCCDQCICTKSNPPQCRCRDARPNACHSACKSCACKPSSASSCKCTDITDFCYEPCKPSE
notes: also called BBIt-AV-V5
[2]
  IC50: 10 to 50 µM

B11: BBIt-VEGF-V1-A13I-S25R-M27A-L29P-S31A-F50K-V52T (designed binder)
chain: DPDDESSKPCCDQCICTKSNPPQCRCRDARPNACHSACKSCACSKHSQITCKCTDITDFCYEPCKPSE
notes: also called BBIt-AV-V1
[3]
  IC50: > 250 µM
[2]
  IC50: 10 to 50 µM

B12: BBIt-VEGF-V2-A13I-S25R-M27A-L29P-S31A-F50K-V52T (designed binder)
chain: DPDDESSKPCCDQCICTKSNPPQCRCRDARPNACHSACKSCACKTNPSGSCKCTDITDFCYEPCKPSE
notes: also called BBIt-AV-V2
[1]
  IC50: 2 to 10 µM

B13: BBIt-VEGF-V3-A13I-S25R-M27A-L29P-S31A-F50K-V52T (designed binder)
chain: DPDDESSKPCCDQCICTKSNPPQCRCRDARPNACHSACKSCACRPTGHSLCKCTDITDFCYEPCKPSE
notes: also called BBIt-AV-V3
[2]
  IC50: 10 to 50 µM

B14: BBIt-VEGF-V4-A13I-S25R-M27A-L29P-S31A-F50K-V52T (designed binder)
chain: DPDDESSKPCCDQCICTKSNPPQCRCRDARPNACHSACKSCACKHSAKAECKCTDITDFCYEPCKPSE
notes: also called BBIt-AV-V4
[1]
  IC50: 2 to 10 µM

B15: BBIt-VEGF-V6-A13I-S25R-M27A-L29P-S31A-F50K-V52T (designed binder)
chain: DPDDESSKPCCDQCICTKSNPPQCRCRDARPNACHSACKSCACPVTKRVHCKCTDITDFCYEPCKPSE
notes: also called BBIt-AV-V6
[2]
  IC50: 10 to 50 µM

B16: MM007-Q-BBIt-FGF-5 (designed binder)
chain: DPDDESSKPCCDQCICTKSNPPQCRCSDMRPNSCHSACKSCACRTQPYPLCTCADITDFCYEPCKPSE
notes: also called BBIt-MM007-Q-A13I-L29P-F50T-V52A
[4]
  IC50: 10 to 50 µM

B17: FGFps2-Q-BBIt-FGF-5 (designed binder)
chain: DPDDESSKPCCDQCICTKSNPPQCRCSDMRPNSCHSACKSCACTWIDSTPCTCADITDFCYEPCKPSE
notes: also called BBIt-FGFps2-Q-A13I-L29P-F50T-V52A
[4]
  IC50: 10 to 50 µM
[5]
  IC50: > 250 µM

B18: PEN3-Q-BBIt-TGFβ1 (designed binder)
chain: DPDDESSKPCCDQCICTKSNPPQCRCSDMRPNSCHSACKSCACPENINVLPCTCADITDFCYEPCKPSE
notes: also called BBIt-PEN3-Q-A13I-L29P-F50T-V52A
[6]
  IC50: 10 to 50 µM

B19: MM021W-Q-BBIt-TGFβ1 (designed binder)
chain: DPDDESSKPCCDQCICTKSNPPQCRCSDMRPNSCHSACKSCACKHNVDWLCTCADITDFCYEPCKPSE
notes: also called BBIt-MM021W-Q-A13I-L29P-F50T-V52A
[6]
  IC50: 10 to 50 µM

B20: WTQ-Q-BBIt-TGFβ1 (designed binder)
chain: DPDDESSKPCCDQCICTKSNPPQCRCSDMRPNSCHSACKSCACWTQHIHNCTCADITDFCYEPCKPSE
notes: also called WTQ-BBIt-Q-TGF; BBIt-WTQ-Q-A13I-L29P-F50T-V52A
[6]
  IC50: 10 to 50 µM

B21: BBIt-TNFα-T1-A13I-S25R-M27A-L29P-S31A-F50K-V52T (designed binder)
chain: DPDDESSKPCCDQCICTKSNPPQCRCRDARPNACHSACKSCACRYWQDIPCKCTDITDFCYEPCKPSE
notes: also called BBIt-TNF-T1
[7]
  IC50: 10 to 50 µM

B22: BBIt-TNFα-T2-A13I-S25R-M27A-L29P-S31A-F50K-V52T (designed binder)
chain: DPDDESSKPCCDQCICTKSNPPQCRCRDARPNACHSACKSCACAPEPILACKCTDITDFCYEPCKPSE
notes: also called BBIt-TNF-T2
[8]
  IC50: 50 to 250 µM

B23: BBIt-TNFα-T3-A13I-S25R-M27A-L29P-S31A-F50K-V52T (designed binder)
chain: DPDDESSKPCCDQCICTKSNPPQCRCRDARPNACHSACKSCACDMIMVSICKCTDITDFCYEPCKPSE
notes: also called BBIt-TNF-T3
[8]
  IC50: 50 to 250 µM

B24: soybean Bowman-Birk Inhibitor (BBI), wild type (other)
chain: DDESSKPCCDQCACTKSNPPQCRCSDMRLNSCHSACKSCICALSYPAQCFCVDITDFCYEPCKPSEDDKEN
notes: Used as the negative control; also called sBBI; BBI-WT
[9]
  IC50: > 250 µM
[10]
  IC50: > 250 µM
